The sequences below were run against FGFR3 (UniProt P22607) (assay: phosphorylation enrichment, bacterial display (enrichment ratio); higher = better substrate or ligand; peptides without Tyr show the background).
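Also: 11-residue human phosphosite peptides and single-mutation variants displayed on the E. coli surface, counted by deep sequencing, each peptide's frequency after selection divided by its frequency in the unselected input library; frequency after pTyr selection over input frequency; kinase dosed for 20-30% of maximal phosphorylation in three min.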

Chain of FGFR3 (P22607 whole entry, looked up): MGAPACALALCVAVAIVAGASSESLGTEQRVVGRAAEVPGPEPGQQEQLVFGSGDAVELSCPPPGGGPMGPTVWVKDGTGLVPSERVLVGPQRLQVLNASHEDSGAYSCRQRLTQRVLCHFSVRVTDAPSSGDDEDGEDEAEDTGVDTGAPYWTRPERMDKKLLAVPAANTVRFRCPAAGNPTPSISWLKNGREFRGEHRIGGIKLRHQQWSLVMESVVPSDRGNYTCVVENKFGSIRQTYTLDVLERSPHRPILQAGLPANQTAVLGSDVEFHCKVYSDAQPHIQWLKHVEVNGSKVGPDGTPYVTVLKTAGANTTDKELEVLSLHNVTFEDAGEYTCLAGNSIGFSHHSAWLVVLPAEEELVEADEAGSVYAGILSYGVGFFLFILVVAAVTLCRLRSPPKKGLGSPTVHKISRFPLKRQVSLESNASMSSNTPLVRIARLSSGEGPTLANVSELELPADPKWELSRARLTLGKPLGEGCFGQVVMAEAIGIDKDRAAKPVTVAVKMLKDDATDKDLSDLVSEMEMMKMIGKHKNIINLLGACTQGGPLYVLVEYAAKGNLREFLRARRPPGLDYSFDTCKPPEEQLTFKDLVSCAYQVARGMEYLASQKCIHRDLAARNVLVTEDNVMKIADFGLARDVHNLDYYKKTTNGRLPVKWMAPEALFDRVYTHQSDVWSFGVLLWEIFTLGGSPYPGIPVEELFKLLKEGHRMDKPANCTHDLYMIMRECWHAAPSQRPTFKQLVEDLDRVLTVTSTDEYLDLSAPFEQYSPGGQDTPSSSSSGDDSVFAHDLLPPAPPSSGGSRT

Sequence	phosphorylation enrichment
WPQKLYNNFVN [MYO5C_Y526_L522P]	0.518
TSSSSYFDEPV [ARFGAP3_Y356]	0.749
ISKKHYAGLLF [POLD1_Y809_R808H]	0.643
WEQELYSQLVF [WAS_Y102_YF]	4.51
GFEVVYMTEPI [HSP90AB1_Y512]	0.879
IVGRLYRLLTE [SETX_Y1978_L1976R]	0.644
RTVPLYESPRK [DDB1_Y718]	0.577
SIKNKYVTALY [KCNH2_Y611_D609N]	0.598
FEKNVYVDKNL [PTCHD3_Y688]	0.461
SYVVRYNQPRV [GRIN2D_Y736_M733V]	0.588
RMDGKYACSYT [FLNB_Y704_T703K]	0.518
VGTKQYMAPEV [ACVRL1_Y375_R374Q]	0.51
RFLERDIYNRE [HLA-DPB1_Y57_Y57D]	2.92
HYGNNYTDVLQ [MACC1_Y803_R804T]	1.05
KGKLIYLLGDS [NXPE1_Y350]	0.521
KIEGVYARDET [RPL35A_Y34]	0.55
NFDLDYDSVQP [MYC_Y16_YF]	0.608

Sequence	phosphorylation enrichment
IDGLEYLHSPG [STK11_Y166_Q170P]	0.543
VVQGLYKSMPK [KBTBD2_Y250]	0.537
NNIDFYKNTTN [FGFR2_Y657_K659N_YF]	0.609
PAIYTYDEYKK [COL8A2_Y648_T645I]	2.2
PEVSGYCHFAD [TG_Y234_C237Y_YF]	0.773
GEHSIYSTVNN [CD55_Y266_C267S]	0.52
KVGNEYVTKGQ [MYH7_Y410]	0.422
DTNIAYWLHPR [POMT1_Y581]	1.23
NACGLYHTMNG [GATA5_Y216_K218T]	1.79
NQILPYIKELV [PPP2R1B_Y341]	0.774
HEGKIYEYNQV [ZNF665_Y162]	0.81
ENFDDYMKEVG [FABP4_Y20]	0.699
LVKDGYQMAQP [CSF1R_Y873]	0.527
PEADKYCLTFA [FGG_Y300_R301C_YF]	1.21
KHMADYPDYKY [SOX11_Y113]	0.632
ICRWVYPLTPE [EIF2B5_Y319_R315C]	0.733

What follows are sequences tested on Fer (mouse) in the same assay as above.

Sequence	phosphorylation enrichment
WPQKLYNNFVN [MYO5C_Y526_L522P]	0.377
TSSSSYFDEPV [ARFGAP3_Y356]	0.506
ISKKHYAGLLF [POLD1_Y809_R808H]	0.469
WEQELYSQLVF [WAS_Y102_YF]	14.4
GFEVVYMTEPI [HSP90AB1_Y512]	0.403
IVGRLYRLLTE [SETX_Y1978_L1976R]	0.37
RTVPLYESPRK [DDB1_Y718]	16
SIKNKYVTALY [KCNH2_Y611_D609N]	0.518
FEKNVYVDKNL [PTCHD3_Y688]	0.437
SYVVRYNQPRV [GRIN2D_Y736_M733V]	0.419
RMDGKYACSYT [FLNB_Y704_T703K]	0.635
VGTKQYMAPEV [ACVRL1_Y375_R374Q]	0.42
RFLERDIYNRE [HLA-DPB1_Y57_Y57D]	1.85
HYGNNYTDVLQ [MACC1_Y803_R804T]	2.53
KGKLIYLLGDS [NXPE1_Y350]	0.471
KIEGVYARDET [RPL35A_Y34]	0.387
NFDLDYDSVQP [MYC_Y16_YF]	0.591

Sequence	phosphorylation enrichment
IDGLEYLHSPG [STK11_Y166_Q170P]	0.426
VVQGLYKSMPK [KBTBD2_Y250]	0.328
NNIDFYKNTTN [FGFR2_Y657_K659N_YF]	0.448
PAIYTYDEYKK [COL8A2_Y648_T645I]	9.34
PEVSGYCHFAD [TG_Y234_C237Y_YF]	0.517
GEHSIYSTVNN [CD55_Y266_C267S]	14.5
KVGNEYVTKGQ [MYH7_Y410]	0.269
DTNIAYWLHPR [POMT1_Y581]	0.373
NACGLYHTMNG [GATA5_Y216_K218T]	0.643
NQILPYIKELV [PPP2R1B_Y341]	0.528
HEGKIYEYNQV [ZNF665_Y162]	18.4
ENFDDYMKEVG [FABP4_Y20]	0.687
LVKDGYQMAQP [CSF1R_Y873]	0.462
PEADKYCLTFA [FGG_Y300_R301C_YF]	0.72
KHMADYPDYKY [SOX11_Y113]	0.42
ICRWVYPLTPE [EIF2B5_Y319_R315C]	0.405

What follows are sequences tested against Fes (UniProt P07332) in the same assay as above.
Chain of Fes (P07332 whole entry, looked up): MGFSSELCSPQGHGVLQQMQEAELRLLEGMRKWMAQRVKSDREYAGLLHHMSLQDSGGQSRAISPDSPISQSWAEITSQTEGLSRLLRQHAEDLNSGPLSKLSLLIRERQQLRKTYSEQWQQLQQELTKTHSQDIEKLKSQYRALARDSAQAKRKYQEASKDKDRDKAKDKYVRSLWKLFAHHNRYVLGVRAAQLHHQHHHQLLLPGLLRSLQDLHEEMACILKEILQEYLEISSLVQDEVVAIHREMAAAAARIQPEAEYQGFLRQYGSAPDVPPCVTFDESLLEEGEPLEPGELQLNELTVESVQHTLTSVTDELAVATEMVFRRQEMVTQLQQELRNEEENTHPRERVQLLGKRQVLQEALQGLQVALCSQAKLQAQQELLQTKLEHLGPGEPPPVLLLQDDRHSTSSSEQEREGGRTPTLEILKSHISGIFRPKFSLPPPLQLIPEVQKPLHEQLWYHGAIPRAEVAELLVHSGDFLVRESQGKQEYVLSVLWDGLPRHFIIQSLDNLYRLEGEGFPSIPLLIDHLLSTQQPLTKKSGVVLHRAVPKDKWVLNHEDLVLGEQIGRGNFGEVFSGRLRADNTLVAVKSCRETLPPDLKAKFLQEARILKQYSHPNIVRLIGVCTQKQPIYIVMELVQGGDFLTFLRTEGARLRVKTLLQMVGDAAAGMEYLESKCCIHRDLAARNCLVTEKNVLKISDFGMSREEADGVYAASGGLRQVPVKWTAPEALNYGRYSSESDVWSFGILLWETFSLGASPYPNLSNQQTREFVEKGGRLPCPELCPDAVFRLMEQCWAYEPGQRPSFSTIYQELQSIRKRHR

Sequence	phosphorylation enrichment
WPQKLYNNFVN [MYO5C_Y526_L522P]	0.884
TSSSSYFDEPV [ARFGAP3_Y356]	1.01
ISKKHYAGLLF [POLD1_Y809_R808H]	0.671
WEQELYSQLVF [WAS_Y102_YF]	2.71
GFEVVYMTEPI [HSP90AB1_Y512]	1.34
IVGRLYRLLTE [SETX_Y1978_L1976R]	1.12
RTVPLYESPRK [DDB1_Y718]	1.77
SIKNKYVTALY [KCNH2_Y611_D609N]	0.592
FEKNVYVDKNL [PTCHD3_Y688]	0.894
SYVVRYNQPRV [GRIN2D_Y736_M733V]	0.891
RMDGKYACSYT [FLNB_Y704_T703K]	1.02
VGTKQYMAPEV [ACVRL1_Y375_R374Q]	0.754
RFLERDIYNRE [HLA-DPB1_Y57_Y57D]	2.16
HYGNNYTDVLQ [MACC1_Y803_R804T]	1.76
KGKLIYLLGDS [NXPE1_Y350]	0.922
KIEGVYARDET [RPL35A_Y34]	0.878
NFDLDYDSVQP [MYC_Y16_YF]	0.974

Sequence	phosphorylation enrichment
IDGLEYLHSPG [STK11_Y166_Q170P]	0.69
VVQGLYKSMPK [KBTBD2_Y250]	0.611
NNIDFYKNTTN [FGFR2_Y657_K659N_YF]	0.792
PAIYTYDEYKK [COL8A2_Y648_T645I]	1.95
PEVSGYCHFAD [TG_Y234_C237Y_YF]	1.39
GEHSIYSTVNN [CD55_Y266_C267S]	1.5
KVGNEYVTKGQ [MYH7_Y410]	0.578
DTNIAYWLHPR [POMT1_Y581]	0.763
NACGLYHTMNG [GATA5_Y216_K218T]	0.95
NQILPYIKELV [PPP2R1B_Y341]	1.14
HEGKIYEYNQV [ZNF665_Y162]	1.56
ENFDDYMKEVG [FABP4_Y20]	1.22
LVKDGYQMAQP [CSF1R_Y873]	0.723
PEADKYCLTFA [FGG_Y300_R301C_YF]	1.96
KHMADYPDYKY [SOX11_Y113]	0.616
ICRWVYPLTPE [EIF2B5_Y319_R315C]	1.36

These sequences were tested against Fyn (UniProt P06241) in the same assay as above.
Chain of Fyn (P06241 whole entry, looked up): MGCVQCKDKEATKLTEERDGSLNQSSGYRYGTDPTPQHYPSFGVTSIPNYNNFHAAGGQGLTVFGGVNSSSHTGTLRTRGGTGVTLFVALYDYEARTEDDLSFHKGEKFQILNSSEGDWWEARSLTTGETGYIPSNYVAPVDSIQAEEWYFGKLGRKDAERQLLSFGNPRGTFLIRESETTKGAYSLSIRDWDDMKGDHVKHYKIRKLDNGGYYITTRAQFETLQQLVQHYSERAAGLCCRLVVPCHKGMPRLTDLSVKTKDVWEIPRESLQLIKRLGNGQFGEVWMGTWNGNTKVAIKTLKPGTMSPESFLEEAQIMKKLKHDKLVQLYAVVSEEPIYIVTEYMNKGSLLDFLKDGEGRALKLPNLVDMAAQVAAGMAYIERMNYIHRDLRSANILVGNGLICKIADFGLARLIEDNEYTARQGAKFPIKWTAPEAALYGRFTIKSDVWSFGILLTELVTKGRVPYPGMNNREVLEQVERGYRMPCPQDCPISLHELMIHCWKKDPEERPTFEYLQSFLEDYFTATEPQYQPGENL

Sequence	phosphorylation enrichment
WPQKLYNNFVN [MYO5C_Y526_L522P]	0.439
TSSSSYFDEPV [ARFGAP3_Y356]	0.478
ISKKHYAGLLF [POLD1_Y809_R808H]	0.42
WEQELYSQLVF [WAS_Y102_YF]	8.54
GFEVVYMTEPI [HSP90AB1_Y512]	0.557
IVGRLYRLLTE [SETX_Y1978_L1976R]	0.376
RTVPLYESPRK [DDB1_Y718]	3.13
SIKNKYVTALY [KCNH2_Y611_D609N]	0.359
FEKNVYVDKNL [PTCHD3_Y688]	0.405
SYVVRYNQPRV [GRIN2D_Y736_M733V]	0.433
RMDGKYACSYT [FLNB_Y704_T703K]	0.418
VGTKQYMAPEV [ACVRL1_Y375_R374Q]	0.432
RFLERDIYNRE [HLA-DPB1_Y57_Y57D]	5.19
HYGNNYTDVLQ [MACC1_Y803_R804T]	0.635
KGKLIYLLGDS [NXPE1_Y350]	0.551
KIEGVYARDET [RPL35A_Y34]	0.555
NFDLDYDSVQP [MYC_Y16_YF]	0.572

Sequence	phosphorylation enrichment
IDGLEYLHSPG [STK11_Y166_Q170P]	0.44
VVQGLYKSMPK [KBTBD2_Y250]	0.34
NNIDFYKNTTN [FGFR2_Y657_K659N_YF]	0.472
PAIYTYDEYKK [COL8A2_Y648_T645I]	18.6
PEVSGYCHFAD [TG_Y234_C237Y_YF]	0.532
GEHSIYSTVNN [CD55_Y266_C267S]	10.3
KVGNEYVTKGQ [MYH7_Y410]	0.3
DTNIAYWLHPR [POMT1_Y581]	0.64
NACGLYHTMNG [GATA5_Y216_K218T]	0.865
NQILPYIKELV [PPP2R1B_Y341]	0.43
HEGKIYEYNQV [ZNF665_Y162]	3.02
ENFDDYMKEVG [FABP4_Y20]	0.496
LVKDGYQMAQP [CSF1R_Y873]	0.357
PEADKYCLTFA [FGG_Y300_R301C_YF]	0.76
KHMADYPDYKY [SOX11_Y113]	0.407
ICRWVYPLTPE [EIF2B5_Y319_R315C]	0.528

Source: the supplement of paper PMC10065799, “High-throughput profiling of sequence recognition by tyrosine kinases and SH2 domains using bacterial peptide display” (eLife, 2023)
